No end group written: not given here.
B1: argipressin BCS aptamer 3 (ssDNA)
DNA: GAGAGTCCACGTGCACAGATAACGAATTCGTATAGGCGCAGCATACATCGGACATACATCCTGCGTGCATCCACCTTTGCATACTTGGCGTTCTTACCACCA
modifications: 5'-phosphate
B2: argipressin BCS aptamer 1 (ssDNA)
DNA: GAGAGTAAAGCCGATAGGATAACGAATTCGTATAGGCGCAGGATGGACTTGATAACCTTCTGCTGCGTGCCTTGATGTGCTTACTTGGCGTTCTTACCACCA
modifications: 5'-phosphate
B3: argipressin BCS aptamer 2 (ssDNA)
DNA: GAGAGTTAGTCAGCAGGGATAACGAATTCGTATAGGCGCAGCATTTGATTCTGCTGCGTGCATACCCCTGTGTGTTATCCCTACTTGGCGTTCTTACCACCA
modifications: 5'-phosphate

Legend:
[1] = biological target: T1, bradykinin peptide-oligo conjugate (synthetic, also: C-terminal Cys conjugated to 3' end of DNA oligo tail); assay: no off-target hits; settings: tags: C-terminal Cys conjugated to DNA oligo tail tethered to flow cell (Genscript)
T1 chain: RPPGFSPFRC

[2] = biological target: T2, argipressin peptide-oligo conjugate (synthetic, UniProt P01185 P01185:20-28, ends and bridges not checked; also: oligonucleotide conjugate, site not given here); assay: barcode ligation sequencing on flow cell, over 100 hits on argipressin foundations; settings: tags: C-terminal DNA oligo tail tethered to flow cell (Genscript)
T2 chain: CYFQNCPRG

Binder | binding result [1] | binding result [2]
B1 | no binding | binds
B2 | no binding | binds
B3 | no binding | binds
